US6207419A, “Thrombin inhibitory agents and methods of using same” (The University of North Carolina at Chapel Hill, priority 1999, dated 2001)
Read-outs that look alike come from different tables or passages of the source.

Columns and labels:
[1] = target: T1, α-thrombin (Homo sapiens, UniProt P00734); experiment: Effect of hirugen on thrombin inhibition in the absence of glycosaminoglycan; format: biochemical; settings: for rate constant of inhibition (k2) in the absence of peptide: no hirugen, no control peptide, FIG. 5
T1 construct: Human α-thrombin, HCII, and ATIII were purified in our laboratory from plasma; from tissue; host or cells: human plasma (purified in the authors' laboratory)
Experimental: (§1) Residual thrombin activity was measured with 150 μM GlyProArg-NA and 1 mg/mL pB in the absence of glycosaminoglycan, 2 mg/mL pB in the presence of heparin and 4 mg/mL in the presence of dermatan sulfate. Residual factor Xa activity was measured with 500 μM Spectrozyme FXa and 2mg/mL pB in the presence or absence of glycosaminoglycan. Residual chymotrypsin activity was measured with 150 μM AlaAlaProPhe-NA and residual trypsin activity was measured with 150 μM GlyProArg-NA.
(§2) Assays were performed at least in triplicate on two or more recombinant protein preparations.

[2] = system: thrombin; experiment: Thrombin inhibition in the absence of glycosaminoglycan; format: biochemical, human; settings: pH 7.4, mean ± S.D.
Experimental: All assays were performed at room temperature in 96-well microtiter plates previously coated with 2 mg/mL BSA.
as §1, §2

[3] = target: T2, plasma purified α-thrombin (Homo sapiens, UniProt P00734); experiment: Thrombin inhibition in the presence of glycosaminoglycans (heparin or dermatan sulfate); format: biochemical; settings: for maximal rate of thrombin inhibition in the presence of heparin: heparin at optimal concentration
T2 construct: Human α-thrombin, HCII, and ATIII were purified in our laboratory from plasma; from tissue; host or cells: human plasma (purified in the authors' laboratory)
Experimental: (§3) Protease inhibition rates were determined as described previously (Rogers, S. J., Pratt, C. W., Whinna, H. C., and Church, F. C. (1992) J. Biol. Chem. 267(6), 3613-3617; Whinna, H. C., Choi, H. U., Rosenberg, L. C., and Church, F. C. (1993) J. Biol. Chem. 268, 3920-3924; Ciaccia, A. V., Cunningham, E. L., and Church, F. C. (1995) Protein Express. Purific. 6, 806-812; Ciaccia, A. V., Willemze, A. J., and Church, F. C. (1997) J. Biol. Chem. 272(2), 888-893). All assays were performed at room temperature in 96-well microtiter plates previously coated with 2 mg/mL BSA.
In the presence of glycosaminoglycans, 5 nM rHCII (wt, CHis6, CHis5 Pro, L444R, or L444R-CHis6) was incubated with 0.5 nM thrombin and 0-1 mg/mL heparin or 0-4 mg/mL dermatan sulfate or 10 nM rATIII (wt or CHis6) was incubated with 1 nM thrombin or factor Xa and 0-1 mg/mL heparin in the presence of 2 mg/mL BSA in HNPN, pH 7.4.
(§4) Residual thrombin activity was measured with 150 μM GlyProArg-NA and 1 mg/mL pB in the absence of glycosaminoglycan, 2 mg/mL pB in the presence of heparin and 4 mg/mL in the presence of dermatan sulfate. Residual factor Xa activity was measured with 500 μM Spectrozyme FXa and 2mg/mL pB in the presence or absence of glycosaminoglycan. Residual chymotrypsin activity was measured with 150 μM AlaAlaProPhe-NA and residual trypsin activity was measured with 150 μM GlyProArg-NA. Substrate cleavage was measured by color development at […] on a Vmax Kinetic Microplate Reader (Molecular Devices).
(§5) Assays were performed at least in triplicate on two or more recombinant protein preparations. All inhibition studies were measured under pseudo-first order conditions where inhibitor [I] is at least ten-fold higher than enzyme (protease) [E], and second-order rate constants were calculated as described previously (Ciaccia, A. V., Cunningham, E. L., and Church, F. C. (1995) Protein Express. Purific. 6, 806-812; Ciaccia, A. V., Willemze, A. J., and Church, F. C. (1997) J. Biol. Chem. 272(2), 888-893).

[4] = Heparin-Sepharose affinity chromatography; format: binding; settings: NaCl gradient, 20 mM Hepes pH 7.4
Experimental: 100 μL of each fraction was aliquoted onto a 96-well microtiter plate and ELISA was performed. The peak elution ionic strength was determined by plotting 405 nm color development and NaCl concentration against the fraction number. All samples were run at least in triplicate using two or more protein preparations. Recombinant ATIII samples were run similarly to the HCII samples, except the elution gradient was run from 50 mM to 2 M NaCl.

[5] = system: thrombin; experiment: Plasma-based thrombin inhibition assay; format: biochemical, human; settings: 10 nM serpin
Experimental: The assay to evaluate rHCII (wt and rHCII-CHis6) in plasma was designed based on previously published methods (Tollefsen, D. M., and Pestka, C. A. (1985) Blood 66(4), 769-774; Griffith, M. J., Carraway, T., White, G. C., and Dombrose, F. A. (1983) Blood 61(1), 111-118). All assays were performed at room temperature in 96-well microtiter plates previously coated with 2 mg/mL BSA. This assay was performed using normal hemostasis reference plasma (REF), human antithrombin III-deficient plasma (DEF), or a 50:50 mixture of these plasmas (REF/DEF). Within the assay, 10 nM rHCII or rHCII-CHis6 was incubated for 15 sec with I nM thrombin and 1 μg/mL heparin or 50 μg/mL dermatan sulfate, in the presence of a 1:100 dilution of plasma. Residual thrombin activity was measured with 300 μM GPA and 2 mg/mL pB. Substrate cleavage was measured by color development at […] on a Vmax Kinetic Microplate Reader. Second order rate constants were measured at least in triplicate on two recombinant protein preparations as described in Example 4.

[6] = system: chymotrypsin; experiment: Chymotrypsin inhibition in the absence of glycosaminoglycan; format: biochemical; settings: pH 7.4, mean ± S.D.
Experimental: as §3
In the absence of glycosaminoglycan, 50-100 nM rHCII (wt, CHis6, CHis5 Pro, L444R, or L444R-CHis6) or rATIII (wt or CHis6) was incubated with 1 nM thrombin, 0.5 nM Factor Xa, 2 nM chymotrypsin, or 5 nM trypsin, in the presence of 1 mg/mL Polybrene (pB) (for thrombin and Factor Xa) and 2 mg/mL BSA in HNPN, pH 7.4.
as §4, §5

[7] = system: plasma-purified α-thrombin; experiment: Thrombin inhibition with heparin before and after carboxypeptidase A digest; format: biochemical, human; settings: 2 hr, room temperature, FIG. 3
Experimental: Forty ng of CPA was combined with approximately 1 μg of recombinant protein and incubated at room temperature. Following a 2-hr incubation at room temperature, 2 mM EDTA was added to quench CPA activity. Controls were run in which EDTA was added to the reaction prior to the addition of CPA. CPA digested proteins were then assayed according to previously mentioned procedures.

[8] = target: T2, plasma purified α-thrombin; settings: value printed with literature reference; cited from earlier work
[9] = system: thrombin; settings: cited from earlier work
[10] = hirugen 20 μM, absence of glycosaminoglycan

B1: wt-rHCII: Human wild type recombinant heparin cofactor II expressed in the baculovirus expression system (protein, UniProt P05546 20-499, looked up)
Heparin cofactor 2: GSKGPLDQLEKGGETAQSADPQWEQLNNKNLSMPLLPADFHKENTVTNDWIPEGEEDDDYLDLEKIFSEDDDYIDIVDSLSVSPTDSDVSAGNILQLFHGKSRIQRLNILNAKFAFNLYRVLKDQVNTFDNIFIAPVGISTAMGMISLGLKGETHEQVHSILHFKDFVNASSKYEITTIHNLFRKLTHRLFRRNFGYTLRSVNDLYIQKQFPILLDFKTKVREYYFAEAQIADFSDPAFISKTNNHIMKLTKGLIKDALENIDPATQMMILNCIYFKGSWVNKFPVEMTHNHNFRLNEREVVKVSMMQTKGNFLAANDQELDCDILQLEYVGGISMLIVVPHKMSGMKTLEAQLTPRVVERWQKSMTNRTREVLLPKFKLEKNYNLVESLKLMGIRMLFDKNGNMAGISDQRIAIDLFKHQGTITVNEEGTQATTVTTVGFMPLSTQVRFTVDRPFLFLIYEHRTSCLLFMGRVANPSRS
For B1, the “reduction of rate of thrombin inhibition by hirugen” value [1, 10] was greater than 50%, the “rate constant of inhibition (k2) in the absence of peptide” value [1] was 253 M⁻¹ s⁻¹ and the “k2 × 10^4 (M^-1 min^-1), thrombin” value [2] was 1.30 ± .19 × 10^4 (M^-1 min^-1). The “average dermatan sulfate concentration at which the maximal rate was measured (in parentheses), thrombin” value ([3]; Thrombin + dermatan sulfate, unit not printed in table (text b157: μg/mL)) was 500, the “average heparin concentration at which the maximal rate was measured (in parentheses), thrombin” value ([3]; Thrombin + heparin, unit not printed in table (text b156: μg/mL)) was 50 and the “dermatan sulfate concentration at maximal rate of thrombin inhibition” value ([3]; dermatan sulfate) was “approximately 500 μg/mL”. For the same molecule, the “maximal rate of thrombin inhibition in the presence of dermatan sulfate” value ([3]; dermatan sulfate at optimal concentration) was 1.52±0.31×10^9 M^-1 min^-1, the “heparin concentration at maximal rate of thrombin inhibition” value ([3]; heparin) was 50 to 100 µg/mL and the “maximal rate of thrombin inhibition in the presence of heparin” value [3] was 9.29±2.8×10^8 M^-1 min^-1. The “Inhibition Rate k2 × 10^8 (M^-1 min^-1), Thrombin + dermatan sulfate” value ([3]; maximal rate of dermatan sulfate curve, mean ± S.D.) was 15.2 ± 3.1 × 10^8 (M^-1 min^-1), the “Inhibition Rate k2 × 10^8 (M^-1 min^-1), Thrombin + heparin” value ([3]; maximal rate of heparin curve, mean ± S.D.) was 9.29 ± 2.8 × 10^8 (M^-1 min^-1) and the “Heparin-Sepharose [NaCl], peak elution concentration” value [4] was 350 mM. The “Inhibition Rate k2 × 10^8 (M^-1 min^-1), thrombin in plasma” value ([5]; Dermatan Sulfate (50 μg/mL), 50:50 Mixture (REF/DEF) plasma 1:100) was 5.8 ± .24 × 10^8 (M^-1 min^-1), the “Inhibition Rate k2 × 10^8 (M^-1 min^-1), thrombin in plasma” value ([5]; Dermatan Sulfate (50 μg/mL), ATIII Deficient (DEF) plasma 1:100) was 6.5 ± .50 × 10^8 (M^-1 min^-1) and the “Inhibition Rate k2 × 10^8 (M^-1 min^-1), thrombin in plasma” value ([5]; Dermatan Sulfate (50 μg/mL), Normal Reference (REF) plasma 1:100) was 5.7 ± .45 × 10^8 (M^-1 min^-1). The “Inhibition Rate k2 × 10^8 (M^-1 min^-1), thrombin in plasma” value ([5]; Heparin (1 μg/mL), 50:50 Mixture (REF/DEF) plasma 1:100) was 1.9 ± .050 × 10^8 (M^-1 min^-1), the “Inhibition Rate k2 × 10^8 (M^-1 min^-1), thrombin in plasma” value ([5]; Heparin (1 μg/mL), ATIII Deficient (DEF) plasma 1:100) was “.26 ± .050 × 10^8 (M^-1 min^-1)” and the “Inhibition Rate k2 × 10^8 (M^-1 min^-1), thrombin in plasma” value ([5]; Heparin (1 μg/mL), Normal Reference (REF) plasma 1:100) was 22 ± .17 × 10^8 (M^-1 min^-1). The “k2 × 10^4 (M^-1 min^-1), chymotrypsin” value [6] was 71.0 ± 12 × 10^4 (M^-1 min^-1) and the “change of heparin-dependent thrombin inhibition after CPA digest, in words” value [7] was “do not drastically change”.

B2: rHCII-L444R: Recombinant HCII with mutation at the reactive site residue P1 (L444R) (protein, UniProt P05546 20-499, looked up, variant L444R)
Heparin cofactor 2: GSKGPLDQLEKGGETAQSADPQWEQLNNKNLSMPLLPADFHKENTVTNDWIPEGEEDDDYLDLEKIFSEDDDYIDIVDSLSVSPTDSDVSAGNILQLFHGKSRIQRLNILNAKFAFNLYRVLKDQVNTFDNIFIAPVGISTAMGMISLGLKGETHEQVHSILHFKDFVNASSKYEITTIHNLFRKLTHRLFRRNFGYTLRSVNDLYIQKQFPILLDFKTKVREYYFAEAQIADFSDPAFISKTNNHIMKLTKGLIKDALENIDPATQMMILNCIYFKGSWVNKFPVEMTHNHNFRLNEREVVKVSMMQTKGNFLAANDQELDCDILQLEYVGGISMLIVVPHKMSGMKTLEAQLTPRVVERWQKSMTNRTREVLLPKFKLEKNYNLVESLKLMGIRMLFDKNGNMAGISDQRIAIDLFKHQGTITVNEEGTQATTVTTVGFMPRSTQVRFTVDRPFLFLIYEHRTSCLLFMGRVANPSRS
In the case of B2, the “effect of hirugen on thrombin inhibition, in words” value [1, 10] is given as “less of an effect”, the “rate constant of inhibition (k2) in the absence of peptide” value [1] is given as 31200 M⁻¹ s⁻¹ and the “maximal rate of thrombin inhibition in the presence of dermatan sulfate” value [8] is given as 2.84±0.24×10^6 M^-1 min^-1. The “maximal rate of thrombin inhibition in the presence of heparin” value [3] was 1.93±0.38×10^8 M^-1 min^-1, the “Heparin-Sepharose [NaCl], peak elution concentration” value [4] was 350 mM and the “increase of the rate of thrombin inhibition compared to wt-rHCII” value ([9]; absence of glycosaminoglycan, earlier publications) was ~2 orders of magnitude. The “rate of thrombin inhibition in the absence of glycosaminoglycan” value ([9]; value printed with literature reference) was 1.3±0.30×10^6 M^-1 min^-1.
